According to patent US20150344570A1 (published 2015):

T1: FcγRIIa H (human, UniProt P12318 34-217)
T1 construct: extracellular domain; also called FcgRIIa H; 2aH; not shown: His tag at the C terminus
T1 sequence (looked up): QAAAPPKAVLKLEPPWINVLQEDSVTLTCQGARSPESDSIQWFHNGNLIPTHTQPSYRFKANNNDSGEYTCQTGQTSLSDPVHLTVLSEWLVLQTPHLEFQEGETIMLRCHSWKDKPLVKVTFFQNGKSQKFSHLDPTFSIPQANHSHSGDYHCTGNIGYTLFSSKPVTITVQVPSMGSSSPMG

T2: FcγRIIb (human, UniProt P31994 43-217)
T2 construct: extracellular domain; also called FcgRIIb; 2b; not shown: His tag at the C terminus
T2 sequence (looked up): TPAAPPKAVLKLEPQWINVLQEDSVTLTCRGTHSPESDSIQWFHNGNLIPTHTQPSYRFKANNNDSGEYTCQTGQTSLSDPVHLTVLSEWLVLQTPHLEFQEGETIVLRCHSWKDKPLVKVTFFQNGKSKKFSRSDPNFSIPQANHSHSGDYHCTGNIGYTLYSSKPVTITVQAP

B1: GpH7-A5/GpH7-B3 variant I332_12R/GpL16-k0 (antibody, human IgG1, kappa)
heavy 1: not shown
heavy 2: not shown
light: DIVMTQSPLSLPVTPGEPASISCQASESLVHSNRNTYLHWYLQKPGQSPQLLIYKVSNRFSGVPDRFSGSGSGTDFTLKISRVEAEDVGVYYCSQNTHVPPTFGQGTKVEIERTVAAPSVFIFPPSDEQLKSGTASVVCLLNNFYPREAKVQWKVDNALQSGNSQESVTEQDSKDSTYSLSSTLTLSKADYEKHKVYACEVTHQGLSSPVTKSFNRGEC
notes: He Ab: mutation in the GpH7-B3 H chain only
B2: GpH7-A5/GpH7-B3 variant P329_06M/GpL16-k0 (antibody, human IgG1, kappa)
heavy 1: not shown
heavy 2: not shown
light: B1 light
notes: as for B1
B3: GpH7-A5/GpH7-B3 variant P329_11K/GpL16-k0 (antibody, human IgG1, kappa)
heavy 1: not shown
heavy 2: not shown
light: B1 light
notes: He Ab: P329K (EU numbering) in the GpH7-B3 H chain only; also called GpH7-A5/GpH7-B13/GpL16-k0
B4: GpH7-A5/GpH7-B3 variant P329_14T/GpL16-k0 (antibody, human IgG1, kappa)
heavy 1: not shown
heavy 2: not shown
light: B1 light
notes: as for B1
B5: GpH7-A5/GpH7-B3 variant P329_04F/GpL16-k0 (antibody, human IgG1, kappa)
heavy 1: not shown
heavy 2: not shown
light: B1 light
notes: as for B1
B6: GpH7-A5/GpH7-B3 variant I336_20W/GpL16-k0 (antibody, human IgG1, kappa)
heavy 1: not shown
heavy 2: not shown
light: B1 light
notes: as for B1
B7: GpH7-A5/GpH7-B3 variant P329_12R/GpL16-k0 (antibody, human IgG1, kappa)
heavy 1: not shown
heavy 2: not shown
light: B1 light
notes: He Ab: P329R (EU numbering) in the GpH7-B3 H chain only; also called GpH7-A5/GpH7-B12/GpL16-k0
B8: GpH7-A5/GpH7-B3 variant P329_13S/GpL16-k0 (antibody, human IgG1, kappa)
heavy 1: not shown
heavy 2: not shown
light: B1 light
notes: as for B1
B9: GpH7-A5/GpH7-B3 variant S324_02A/GpL16-k0 (antibody, human IgG1, kappa)
heavy 1: not shown
heavy 2: not shown
light: B1 light
notes: as for B1
B10: GpH7-A5/GpH7-B3 variant S324_10E/GpL16-k0 (antibody, human IgG1, kappa)
heavy 1: not shown
heavy 2: not shown
light: B1 light
notes: as for B1
B11: GpH7-A5/GpH7-B3 variant S324_16H/GpL16-k0 (antibody, human IgG1, kappa)
heavy 1: not shown
heavy 2: not shown
light: B1 light
notes: as for B1
B12: GpH7-A5/GpH7-B3 variant P329_15Y/GpL16-k0 (antibody, human IgG1, kappa)
heavy 1: not shown
heavy 2: not shown
light: B1 light
notes: as for B1
B13: GpH7-A5/GpH7-B3 variant I332_18N/GpL16-k0 (antibody, human IgG1, kappa)
heavy 1: not shown
heavy 2: not shown
light: B1 light
notes: as for B1
B14: GpH7-A5/GpH7-B3 variant S324_11K/GpL16-k0 (antibody, human IgG1, kappa)
heavy 1: not shown
heavy 2: not shown
light: B1 light
notes: as for B1
B15: GpH7-A5/GpH7-B3 variant I336_19Q/GpL16-k0 (antibody, human IgG1, kappa)
heavy 1: not shown
heavy 2: not shown
light: B1 light
notes: as for B1
B16: GpH7-A5/GpH7-B3 variant P329_16H/GpL16-k0 (antibody, human IgG1, kappa)
heavy 1: not shown
heavy 2: not shown
light: B1 light
notes: as for B1
B17: GpH7-A5/GpH7-B3 variant P329_18N/GpL16-k0 (antibody, human IgG1, kappa)
heavy 1: not shown
heavy 2: not shown
light: B1 light
notes: as for B1
B18: GpH7-A5/GpH7-B3 variant S324_12R/GpL16-k0 (antibody, human IgG1, kappa)
heavy 1: not shown
heavy 2: not shown
light: B1 light
notes: as for B1
B19: GpH7-A5/GpH7-B3 variant N325_11K/GpL16-k0 (antibody, human IgG1, kappa)
heavy 1: not shown
heavy 2: not shown
light: B1 light
notes: as for B1
B20: GpH7-A5/GpH7-B3 variant P329_03V/GpL16-k0 (antibody, human IgG1, kappa)
heavy 1: not shown
heavy 2: not shown
light: B1 light
notes: as for B1
B21: GpH7-A5/GpH7-B3 variant P329_07I/GpL16-k0 (antibody, human IgG1, kappa)
heavy 1: not shown
heavy 2: not shown
light: B1 light
notes: as for B1
B22: GpH7-A5/GpH7-B3 variant N325_12R/GpL16-k0 (antibody, human IgG1, kappa)
heavy 1: not shown
heavy 2: not shown
light: B1 light
notes: as for B1
B23: GpH7-A5/GpH7-B3 variant P329_08L/GpL16-k0 (antibody, human IgG1, kappa)
heavy 1: not shown
heavy 2: not shown
light: B1 light
notes: as for B1
B24: GpH7-A5/GpH7-B3 variant P329_19Q/GpL16-k0 (antibody, human IgG1, kappa)
heavy 1: not shown
heavy 2: not shown
light: B1 light
notes: as for B1
B25: GpH7-A5/GpH7-B3 variant S324_01G/GpL16-k0 (antibody, human IgG1, kappa)
heavy 1: not shown
heavy 2: not shown
light: B1 light
notes: as for B1
B26: GpH7-A5/GpH7-B3 variant P329_02A/GpL16-k0 (antibody, human IgG1, kappa)
heavy 1: not shown
heavy 2: not shown
light: B1 light
notes: as for B1
B27: GpH7-A5/GpH7-B3 variant Y300_12R/GpL16-k0 (antibody, human IgG1, kappa)
heavy 1: not shown
heavy 2: not shown
light: B1 light
notes: as for B1
B28: GpH7-A5/GpH7-B3 variant S324_19Q/GpL16-k0 (antibody, human IgG1, kappa)
heavy 1: not shown
heavy 2: not shown
light: B1 light
notes: as for B1
B29: GpH7-A5/GpH7-B3 variant S324_09D/GpL16-k0 (antibody, human IgG1, kappa)
heavy 1: not shown
heavy 2: not shown
light: B1 light
notes: as for B1
B30: GpH7-A5/GpH7-B3 variant Y300_13S/GpL16-k0 (antibody, human IgG1, kappa)
heavy 1: not shown
heavy 2: not shown
light: B1 light
notes: as for B1
B31: GpH7-A5/GpH7-B3 variant S324_18N/GpL16-k0 (antibody, human IgG1, kappa)
heavy 1: not shown
heavy 2: not shown
light: B1 light
notes: as for B1

What was measured:
[1] = target: T1, FcγRIIa H; test: SPR (Biacore), FcγR passed over captured antibody; binding amount as % of control GpH7-A5/GpH7-B3/GpL16-k0 (=100)
Procedure: (§1) The heterodimerized antibodies He Abs in which one of the H chains was introduced with an alteration were assayed for their binding activities to each activating FcγR and inhibitory FcγR according to the method described in Example 4. […] The activating FcγRs in FIGS. 26, 27, 28, and 29 are FcγRIa, FcγRIIa (R), FcγRIIa (H), and FcγRIIIa, respectively.
(§2) Analysis of interaction between objective antibody and the FcγR was carried out using Biacore T100 (GE Healthcare). HBS-EP+ (GE Healthcare) was used as the running buffer, and the measurement temperature was set to 25° C. Chips produced by immobilizing the antigen peptide by the amine coupling method to a Series S Sencor Chip CM5 (GE Healthcare), or alternatively, chips produced by allowing preliminarily biotinylated antigen peptides to interact with and immobilize onto a Series S Sensor Chip SA (certified) (GE Healthcare) were used. Antibodies of interest were captured onto an antigen peptide-immobilized chip, and allowed to interact to each FcγR diluted with running buffer. To regenerate and repeatedly use the chip, the antibodies captured on the chip were washed off by reacting 10 mM glycine-HCl, pH 1.5.

[2] = target: T2, FcγRIIb; test: as above
Procedure: as §1, §2

[3] = target: T1, FcγRIIa H; test: SPR (Biacore); He/Con_2aH divided by He/Con_2b (FcγRIIa H versus FcγRIIb)
Procedure: as §1, §2

| Binder | He/Con_2aH [1] | He/Con_2b [2] | He_2aH/2b (IIaH/IIb) [3] [ratio] |
| --- | --- | --- | --- |
| B1 | 87.8 relative, control = 100 | 48.9 relative, control = 100 | 1.8 |
| B2 | 43.7 relative, control = 100 | 29.1 relative, control = 100 | 1.5 |
| B3 | 46.2 relative, control = 100 | 16.9 relative, control = 100 | 2.74 |
| B4 | 62.4 relative, control = 100 | 37.9 relative, control = 100 | 1.65 |
| B5 | 44.5 relative, control = 100 | 32.2 relative, control = 100 | 1.38 |
| B6 | 30.9 relative, control = 100 | 20.3 relative, control = 100 | 1.52 |
| B7 | 46.4 relative, control = 100 | 17.6 relative, control = 100 | 2.63 |
| B8 | 67.3 relative, control = 100 | 41 relative, control = 100 | 1.64 |
| B9 | 102 relative, control = 100 | 78.3 relative, control = 100 | 1.31 |
| B10 | 103 relative, control = 100 | 77.4 relative, control = 100 | 1.33 |
| B11 | 102 relative, control = 100 | 83.5 relative, control = 100 | 1.22 |
| B12 | 68.7 relative, control = 100 | 45.7 relative, control = 100 | 1.5 |
| B13 | 110 relative, control = 100 | 89.9 relative, control = 100 | 1.22 |
| B14 | 92.2 relative, control = 100 | 68.6 relative, control = 100 | 1.34 |
| B15 | 73.7 relative, control = 100 | 58.2 relative, control = 100 | 1.27 |
| B16 | 66.1 relative, control = 100 | 39.1 relative, control = 100 | 1.69 |

| Binder | He/Con_2aH [1] | He/Con_2b [2] | He_2aH/2b (IIaH/IIb) [3] [ratio] |
| --- | --- | --- | --- |
| B17 | 66.2 relative, control = 100 | 40.4 relative, control = 100 | 1.64 |
| B18 | 96.5 relative, control = 100 | 63.1 relative, control = 100 | 1.53 |
| B19 | 16.1 relative, control = 100 | 10.4 relative, control = 100 | 1.55 |
| B20 | 60.4 relative, control = 100 | 38.5 relative, control = 100 | 1.57 |
| B21 | 53.8 relative, control = 100 | 34.6 relative, control = 100 | 1.56 |
| B22 | 29.9 relative, control = 100 | 19.1 relative, control = 100 | 1.56 |
| B23 | 45.4 relative, control = 100 | 29.1 relative, control = 100 | 1.56 |
| B24 | 38.7 relative, control = 100 | 30.7 relative, control = 100 | 1.26 |
| B25 | 98.8 relative, control = 100 | 81.1 relative, control = 100 | 1.22 |
| B26 | 65.7 relative, control = 100 | 40.5 relative, control = 100 | 1.62 |
| B27 | 55.4 relative, control = 100 | 41.2 relative, control = 100 | 1.34 |
| B28 | 96 relative, control = 100 | 66.8 relative, control = 100 | 1.44 |
| B29 | 106 relative, control = 100 | 85.8 relative, control = 100 | 1.23 |
| B30 | 88.1 relative, control = 100 | 53.9 relative, control = 100 | 1.64 |
| B31 | 97.8 relative, control = 100 | 81.1 relative, control = 100 | 1.21 |
